The target of experiment [1] is T1, wild-type murine CCR7 (pcDNA3.1 Neo-mouseCCR7, 20060298628) (mouse, UniProt P47774 25-378).
T1 construct: Full open reading frame as printed; Expressed on transfected 293T cells; also called mCCR7; wild-type murine CCR7 receptor
T1 sequence: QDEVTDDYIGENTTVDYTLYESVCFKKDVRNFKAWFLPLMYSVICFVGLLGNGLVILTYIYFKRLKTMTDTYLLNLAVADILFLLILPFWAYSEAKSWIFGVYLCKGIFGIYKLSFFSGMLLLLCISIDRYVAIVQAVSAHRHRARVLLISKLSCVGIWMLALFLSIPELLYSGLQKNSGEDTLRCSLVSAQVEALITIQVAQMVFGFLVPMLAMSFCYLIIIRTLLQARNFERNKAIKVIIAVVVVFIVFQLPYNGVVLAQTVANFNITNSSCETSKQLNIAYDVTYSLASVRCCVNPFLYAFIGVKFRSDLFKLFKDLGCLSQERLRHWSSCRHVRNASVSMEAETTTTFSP
Description: flow cytometry on transfected 293T cells. The procedure: 293T cells were transfected with each of the 22 constructs using Fugene HD Transfection Reagent (Cat #: 04709705001) (Roche Applied Sciences, Indianapolis, Ind.) according to manufacturer's protocol. DNA to Fugene HD ratio used was 1:3. […] After 48 hours, transfected cells were harvested and washed with PBS+5% FBS two times. Cells were counted using the Nexcelom Cell Counter (Nexcelom Bioscience, Lawrence, Mass.), and 250,000 cells per well were plated in a 96 well round bottom plate. Cells transfected with each construct were stained in duplicate as follows: unstained control, 6B4.1 primary Ab followed by Goat anti-human-PE secondary Ab, 6B5.1 primary Ab followed by Goat anti-human-PE secondary Ab, mAb197 primary Ab followed by Goat anti-mouse-PE secondary Ab, and the controls of secondary Ab Goat anti-mouse-PE only and Goat anti-human-PE only. The cells were visualized by flow cytometry and geo means were generated and analyzed.

For experiment [2], the target named is T2, human CCR7 variant L47V (20100122626) (human, UniProt P32248 25-378).
T2 sequence: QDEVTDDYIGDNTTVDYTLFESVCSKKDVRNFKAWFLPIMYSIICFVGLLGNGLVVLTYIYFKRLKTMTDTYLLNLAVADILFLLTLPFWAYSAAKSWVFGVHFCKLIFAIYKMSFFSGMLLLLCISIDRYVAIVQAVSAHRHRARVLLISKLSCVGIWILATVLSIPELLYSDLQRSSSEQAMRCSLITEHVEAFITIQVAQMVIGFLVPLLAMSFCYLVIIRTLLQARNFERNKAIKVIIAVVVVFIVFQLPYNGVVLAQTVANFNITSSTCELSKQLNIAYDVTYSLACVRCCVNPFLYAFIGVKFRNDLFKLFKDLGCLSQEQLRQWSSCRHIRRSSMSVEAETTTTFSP
Nature of the experiment: flow cytometry on transfected 293T cells, PE secondary antibody, geo mean.

Experiment [3] addresses T3, human CCR7 variant M208L (20100171271) (human, UniProt P32248 25-378).
T3 sequence: T2 sequence with V23L, M184L
Described as above.

The target of experiment [4] is T4, human CCR7 variant L300T (20110018204) (human, UniProt P32248 25-378).
T4 sequence: T2 sequence with V23L, L276T
Described as above.

Experiment [5] has as its target T5, human CCR7 variant H127Y (20100135009) (human, UniProt P32248 25-378).
T5 sequence: T2 sequence with V23L, H103Y
The experiment is described as above.

Experiment [6] deals with T6, human CCR7 variant F128L (20100126472) (human, UniProt P32248 25-378).
T6 sequence: T2 sequence with V23L, F104L
The experiment is described as above.

From patent publication US20170342155A1 (Amgen, published 2017) come the findings set out here.

Residue numbers refer to the chain shown, from its start.

B1: antibody 6B4.1 (antibody, V domains shown)
VH: QVQLVESGGGVVQPGRSLRLSCAASGFTFSSYGMHWVRQAPGKGLEWVAVIWYDGSKKYYADSVKGRFTISRDNSKNTLYLQMNRLRAEDTAVYYCARDGGIAVFLQDNWFDPWGQGTLVTVSS
VL: SYELTQPPSVSVSPGQRARITCSGDKLGDKYASWYQQKPGQSPLLVIYQDSKRPSGIPERFSGSNSGNTATLTISGTQAMDEADYYCQAWGSSTVIFGGGTKLTVLG
notes: Human antibody from XenoMouse hybridoma; Light = 2 and heavy = 42 is inferred from the order of the listing (light chains first)
Take B1: the binding result in experiment [1] is given as “no binding”; in experiment [2], “binds”; in experiment [3] it was “binds”; in experiment [4], “binds”; in experiment [5] it was “binds”; in experiment [6] it was “binds”.

B2: antibody 6B5.1 (antibody, human IgG2, lambda, V domains shown)
VH: B1 VH with S30R, Q107E
VL: B1 VL with R19S, S51G
notes: Human antibody from XenoMouse hybridoma; Light = 18 and heavy = 50 is inferred from the order of the listing
Consider B2, for which the binding result in experiment [1] is “no binding”; in experiment [2] it was “binds”; in experiment [3] it was “binds”; in experiment [4], “binds”; in experiment [5], “binds”; in experiment [6] it was “binds”.
